In the DeepSol protein solubility set:

Experiment: soluble on expression in E. coli; label from the status in PepcDB or PDB records

Sequence	soluble on expression in E. coli
MAGKITVVGLGAGDMDQLTIGIHKLLTKADTLYVRTKDHPLIEELEKETKNIRFFDDIYEKHDQFEAVYEEIADILFEAARREDVVYAVPGHPFVAEKTVQLLTERQEKENVQVKVAGGQSFLDATFNVLQIDPIEGFQFVDAGTLSADELELRHHLIICQVYDQMTASEVKLTLMEKLPDDYEVVIVTAAGSRGEEIRTVPLFELDRNVALNNLTSVYIPPIKEEKLLYHEFSTFRSIIRELRGPNGCPWDKKQTHQSLKQYMIEECYELLEAIDEEDTDHMIEELGDVLLQVLLHAQIGEDEGYFTIDDVIKGISEKMVRRHPHVFKDVKVQDENDVLANWEDIKKAEKNTSESSLLDSVPKTLPALSKAAKLQKKAAKVGFDWEDVSDIWEKVSEEMKEFSSEVSEAPHEHNLKAEFGDILFALVNVARFYKIEPEEALTMTNDKFRRRFSYIEETAKEEGVELADMSLEDMDKLWNEAKETERRS	soluble
MHHHHHHMGIVTGPIIDHSKENDVMNEAEQNAETVRRGYAAFNSGDMKTLTELFDENASWHTPGRSRIAGDHKGREAIFAQFGRYGGETGGTFKAVLLHVLKSDDGRVIGIHRNTAERGGKRLDVGCCIVFEFKNGRVIDGREHFYDLYAWDEFWR	soluble
SIPWNLERITPPRYRADEYQPPDGGSLVEVYLLDTSIQSDHREIEGRVMVTDFENVPEEDGTRFHRQASKCDSHGTHLAGVVSGRDAGVAKGASMRSLRVLNCQGKGTVSGTLIGLEFIRKSQLVQPVGPLVVLLPLAGGYSRVLNAACQRLARAGVVLVTAAGNFRDDACLYSPASAPEVITVGATNAQDQPVTLGTLGTNFGRCVDLFAPGEDIIGASSDCSTCFVSQSGTSQAAAHVAGIAAMMLSAEPELTLAELRQRLIHFSAKDVINEAWFPEDQRVLTPNLVAALPPSTHGAGWQLFCRTVWSAHSGPTRMATAIARCAPDEELLSCSSFSRSGKRRGERMEAQGGKLVCRAHNAFGGEGVYAIARCCLLPQAACSVHTAPPAEASMGTRVHCHQQGHVLTGCSSHWEVEDLGTHKPPVLRPRGQPNQCVGHREASIHASCCHAPGLECKVKEHGIPAPQGQVTVACEEGWTLTGCSALPGTSHVLGAYAVDNTCVVRSRDVSTTGSTSEEAVTAVAICCRSRHLAQASQELQ	soluble
MSATGPGIVVIDKPAGMTSHDVVGRCRRIFATRRVGHAGTLDPMATGVLVIGIERATKILGLLTAAPKSYAATIRLGQTTSTEDAEGQVLQSVPAKHLTIEAIDAAMERLRGEIRQVPSSVSAIKVGGRRAYRLARQGRSVQLEARPIRIDRFELLAARRRDQLIDIDVEIDCSSGTYIRALARDLGDALGVGGHVTALRRTRVGRFELDQARSLDDLAERPALSLSLDEACLLMFARRDLTAAEASAAANGRSLPAVGIDGVYAACDADGRVIALLRDEGSRTRSVAVLRPATMHPGGVPRGKLAAALEHHHHHH	soluble
MEANKKAKPSYGDVISNLPNDLLCRILSYLSTKEAALTSILSKRWSNLLLSIPILDFDDSVLLKPQKGQRKNVFFKAFVDRLLSQRVETSSHVQRVSLKCRQGGVEPDCVIKWILTTVRDLGVLDLSLCIDFGIFHLPFNVFRSKTLVKLRIGTMIRLSQFPSDVVSPTLNSLVLDLVEFRDGDKVEFRQILLAFPSLQSLRVHESNKWKFWNGSASSRTLKSLVYRSDDDSSAPKPCVSFDTPSLVYLDYSDMVADKYENLKFDSLVEARLDLHLTAFQIMRKPNNIGIVSGDVTTLFKGIRNVKILCLSPDALEALYYRGEKIPMFNNLITLSLGSDKPHGSPFIFWKLLPSLLNNSLKLETLIIKGLVHYVAEGWEGLSPMTPMSRLCFSWDTVSDSLSSSAMKVLEISGYKGTWQELNQMKRFLGNLSRLEVVRVYHKAMDDKERINVMFDLFLLPKVSSECDIQVMKETA	soluble
MILAQKQKQVIRLNLISTWRKLISSTKIPNWLSQTKIQSKYQTRGIYPGSFFQKTIFRKDGSMSVQRTLQKYMDDWKRISHFDFCLLQEDNSILVTTCDRRLPAESKLEEFRNSTALCLSNATCCLYKITEKNEQLLLIVWGSEDSVSTIGELAVCQIESILESYAEKNDKNAFMQKLLLGDYTDVEAFNRARKLHISSSARRAVFLVETRQSKDEHALATIKNIFSARTHDFITSIDNRGIIVVRELTSTETYDDLENIAHMLVDMLGTEAMTQAWVAYSNTANDLKDLSNAYKEARTALEIGKIFYAERNVFGYRTLGIGRLLYQLPVSICEMFIQEIFGDESLDSIDGETLAIIRTFFENNLNLSETSRQLYVHRNTLVYRFEKIQKRFGLDLRTFEDAMTFKLAMLVSRYLRYQNRT	not soluble
MSLNRNDKRGARRNILAHYDLGNALFERLLDPTMMYSAAQFEHPGQTLEQAQLHKLERICQKLELSPDDHLLEIGSGWGSLAIHAATRYGCRVTTTTLSEAQYSHTLERVKALGLGQRVQVLREDYRDLQGTFDKLVSIEMIEAVGHRYLPVYFRQCASLLKPEGLMLLQAITIRDQRYAQAQRSVDFIQRYIFPGGALPSLSVLLDTASRHTGLNLVHMEDFGLDYAHTLRHWRENLRQARTALTDLGYDDMFQRLWEFYLCYCQGGFEERAIGVAHLLWAAEGHHHHHH	soluble
MTAASIDRELVPWSDPEFRNNPYPWYRRLQQDHPVHKLEDGTYLVSRYADVSHFAKLPIMSVEPGWADAGPWAVASDTALGSDPPHHTVLRRQTNKWFTPKLVDGWVRTTRELVGDLLDGVEAGQVIEARRDLAVVPTHVTMARVLQLPEDDADAVMEAMFEAMLMQSAEPADGDVDRAAVAFGYLSARVAEMLEDKRVNPGDGLADSLLDAARAGEITESEAIATILVFYAVGHMAIGYLIASGIELFARRPEVFTAFRNDESARAAIINEMVRMDPPQLSFLRFPTEDVEIGGVLIEAGSPIRFMIGAANRDPEVFDDPDVFDHTRPPAASRNLSFGLGPHSCAGQIISRAEATTVFAVLAERYERIELAEEPTVAHNDFARRYRKLPIVLS	soluble
MKMEVPQVDLPLEVLAWTKVTEDILNIYKQSCRLQACIFAICTEGTMKVSINLLEYEVHPNDLITLLPGTIIQFREKAEKVSLCFAGFSAKCIGHINLLTTIGNAYPKLIEQPIIPLSENIADYLKEYFALLSHASCDESFKMDSKLADLSLQTILTSIQLMYRNYSGNNHSNRKKEICRKLIQLITEHYKDQRCAQFYADQLGISLQHLSTTVKQVTGKSVLDTIAYIVIIDAKAQLKGTDMTIQEIAYSLNFPNPSFFCKFFRRHVGMSPLEFRNS	not soluble
MGSDKIHHHHHHMADNTPKFSQGSTSDTVGYEDFLVDLKTRISNAQLRAVVAVNKELVLLYWQIGRDILHRQQQQGWGAKVIDRLASDLRKAFPDIKGFSSRNLKYMRAFAEAYNDEEFVQQAVAQIPWGHNVRLLDAVKDPAERLWYAQQTIQNGWSRNVLVHQIESKLYQRQGKATTNFNNTLPQPQSELAQQLLKDPYTFDFLNLGEDFLERDLERALIKHIRDFLLELGVGFAFVGSQYHLEVGGEDFYIDLLFYHLRLRCFVVIDLKIEDFKPEFSGKMNFYVSAVDDLLRHPNDQSTIGIILCRSKNKVIAEYSLRDMYKPIGVSTYQLKDNLPEFVQDNLPTIEQLESELETVVLKLEKLDDL	not soluble
MGSDKIHHHHHHMASIRELHEQLVKKERSAVEITQETLDHIQELEPKLHSFLHITAQQALEQARAVDAKIAAGEEIGLLAGIPIGVKDNMCTKGIPTTCASRILENFVPPYESTVTQKLLDAGAVVVGKTNLDEFAMGSSTENSAYQVTANPWDLSRVPGGSSGGSAAAVAAEECVVALGSDTGGSIRQPASFCGVVGLKPTYGLVSRYGLVAYASSLDQIGPFGKSVEDTAILLKAIAGYDHQDSTSLKVEIPDYVASLKPDLKARSKLRIGIIKETFGEGLDSVVEQAVTKAIEQLQRLGAEVHVISCPNFRYGVPSYYIIAPSEASANLARYDGVKYGWRAPEGDNLLSMYKRTRATGFGAEVKRRIMIGTYALSAGYYDAYYLKAQKVRTLIKQDFENAFKNVDVLVSPTAPTTAFKAGEKTADPISMYLNDLMTIPVNLAGLPGLSVPCGFDEQGLPIGLQLIGKVLREDQLLQIAYAYEQSTSWHLSQPKIS	not soluble
PKIAGIDLGTTYSSIGIYHAVTGETIILPDDLGKKSVPSVVAFLPNGTVLIGTRATEQQEHNPKRTIYDAKRFIGRNFEKNNKDFLSDQKRYPFKINLDSEGKAFFEIPLDSGTKNVYPEEIGSLIIGYLKSAAAKHLGVTLGQVVISCPAEFNEKQRNFTAKAAEIAEMEVRRVISEPTAAALAYGLHKKQGVENVVVVDLGGGTLDVSVLWLQGGVFVTQAMAGNNRLGGQDFNDRVQKHLISKIAEKFGKTIDNKEDIQQIRMEVEKGKIRLTNVPSTTISLNLKTVGKWNYELTRDEFETLNGDLLKAIELPITAALADANLDTADVDEIVLVGGSTQVPAVRKIVGRFFKKSANYGVDPELAVVTGASVQAGVIGGGWPLQVAAMELPAKRRKRHFFTEEQKENEKDRTISEL	not soluble
MQARRYLLRPAARLRRSRRIATAAPERLWLFDLDNTLHDTSHAIFPLIDRGMTEAVAETLAVDEATANRLRAEYWRRYGATVIGLVRHHGVDADAFLHRSHNFEVAPLVRAETALADKLRRLPGRKVLLTNAPLHYARAVLRHLGLLRQFDSIWAIEQMCMHGQFRPKPSDALLRYVLAREGVPAARAVLIEDTLDNLRSARRVGLRTVHVFHPGTPFARGHRQRPGYVDLRVNSVSDLLLRRRPLRG	not soluble
MGSDKIHHHHHHMESSTNPWWVPEDFLAKLQKRVNPEKLAKYGLNDIRQAYFGIYLGIRLDDGSRAPQFLPYKPGFANHIFFLGRSGYGKTSIMRALAEGIYDYFYLNGRKALIIIIEAKYDKTKVKKLMTFREYIIQNFGYDYLLENYPWLENYLQEYSQKRPLLGKIGDFAFGWPNVEGIMTKVDSHHNQFQRHRLQPMIYPSTRIVFRPTRDLSLISRDNGMNVQVVEGKISYERLEVEDLTKFTYVNTQTNYMRILDIYWGQKKIRDPDRFLKEVIRNEYPPRSGETIEDILRSRDRTIANLRTLMNKLKSDRLFTKDPKEEFVKKLTPDRINVIDFSANSRLSDEEEAEIFNILVNYVVNEFALKKDIPVFIIVDEVQNIAKHRLGMAAINKIYREGRSLEISLISGTQYLSGLSKDLVRGATHIGIVGRLASERDAELLEEILDERFDTGEKPRSLQELFRIRKARRGKGKFSIDCEYTFTIEYRVPKTL	not soluble
MFEPGHLHLVSLPGLDQQDINIHIRYEVRQNAESGAYVHFDMDGEIDGKPFSDSFELPRDTAFNFASDATRVAQKHGLHPKFGAITRVHKEYDAMFEDIRAKLHAHPGEPVDLERIIRHE	not soluble
MKEARKRMVKRAVQEIKDGMNVNLGIGMPTLVANEIPDGVHVMLQSENGLLGIGPYPLEGTEDADLINAGKETITEVTGASYFDSAESFAMIRGGHIDLAILGGMEVSEQGDLANWMIPGKMVKGMGGAMDLVNGAKRIVVIMEHVNKHGESKVKKTCSLPLTGQKVVHRLITDLAVFDFVNGRMTLTELQDGVTIEEVYEKTEADFAVSQSVLNS	soluble
MGSDKIHHHHHHMPPLSIPADQYLRLSDKSQVRCYRSHFSDRMEMLAPPKNVAAYLDHHQGWFQRCAAPMEVKALDDQSYLLTLGRFGNFGFEVEPCIGLKLLPQQQGLYQIINVDLTHQDLPLCDHYDVDFKAGLKLEPSETEASNTVQQTTIVNWDLDLSVWIQLPKVITLLPDGLVQTSGDQLLRQVVRQISRRLTWKVQEDFHATHGLTCPPRRHAAF	not soluble
MVDFYYLPGSSPCRSVIMTAKAVGVELNKKLLNLQAGEHLKPEFLKINPQHTIPTLVDNGFALWESRAIQVYLVEKYGKTDSLYPKCPKKRAVINQRLYFDMGTLYQSFANYYYPQVFAKAPADPEAFKKIEAAFEFLNTFLEGQDYAAGDSLTVADIALVATVSTFEVAKFEISKYANVNRWYENAKKVTPGWEENWAGCLEFKKYFE	soluble
MAQHEVITRGGDAFLLKLRESALSSGSMSEEQFFLLIGISSIHSDRVILAMKDYLVSGHSRKDVCEKYQMNNGYFSTTLGRLTRLNVLVARLAPYYTDSVSAIAEAASL	soluble
